In US20220073586A1 (EUTILEX, published 2022):
Positions count from the first letter of the chain named.

B1: PD-1.m8 Fc fusion protein (Fc fusion)
chain: FLESPDRPWNAPTFSPALLLVAEGDNATFTCSFSNASESFHVVWHRESPSGQTDTLAAFPEDRSQPGQDHRFRVTRLPNGRDFHMSVVRAQRNDSGTYVCGVISLAPKIQIKESLGAELRVTERRAEVPTAHPSPSPRPAGQFQTLVVGGGGGSSNTKVDKRVEPKSCDKTHTCPPCPAPPVAGPSVFLFPPKPKDTLMISRTPEVTCVVVDVSHEDPEVQFNWYVDGVEVHNAKTKPREEQFNSTFRVVSVLTVVHQDWLNGKEYKCKVSNKGLPAPIEKTISKTKGQPREPQVYTLPPSREEMTKNQVSLTCLVKGFYPSDIAVEWESNGQPENNYKTTPPMLDSDGSFFLYSKLTVDKSRWQQGNVFSCSVMHEALHNHYTQKSLSLSPGK
B2: PD-1.m7 Fc fusion protein (Fc fusion)
chain: B1 chain with H70C, Q91R
B3: euPD-1 Fc fusion protein (Fc fusion)
chain: B1 chain with G116R

Key:
[1] = biological target: PD-L1 molecules (Sino, Cat #10084-H08H) (UniProt Q9NZQ7 19-238); test: SPR, Biacore T200; PD-1 Fc fusion fixed on CM5 chip, PD-L1 injected at 3.125-100 nM
[2] = biological target: T1, PD-L2 antigen (coated on 96-well immunoplate) (UniProt Q9BQ51 20-220, limits assumed); test: single antigen ELISA, PD-L2 coated at 1 ug/mL, detection with anti-hFc-HRP
T1 construct: also called antigen PD-L2
T1 sequence (looked up): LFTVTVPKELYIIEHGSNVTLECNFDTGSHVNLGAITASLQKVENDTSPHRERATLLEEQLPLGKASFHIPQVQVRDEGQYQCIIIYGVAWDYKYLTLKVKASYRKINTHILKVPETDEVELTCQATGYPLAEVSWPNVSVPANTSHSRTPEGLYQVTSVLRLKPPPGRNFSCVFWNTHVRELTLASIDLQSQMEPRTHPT
Description: (§1) Briefly, after coating PD-L1 antigen or PD-L2 antigen at a concentration of 1 μg/ml in a 96-well immunoplate at 4° C. overnight, 150 μl of 1× assay buffer (Biolegend) was treated for 1 hour to block non-specific binding. […] The treatment concentration on the antigen PD-L1-coated plate was serially diluted from 30 μg/mL to 3 times to make a total of 15 points, The treatment concentration on the antigen PD-L2 coated plate was serially diluted 3 times from 100 μg/mL to a total of 12 points. Anti-hFc-HRP (Biolegend) was treated with 100 μl at a concentration of 0.4 μg/mL. After incubation for 1 hour, color was developed with TMB, and after 3 minutes, the reaction was stopped using sulfuric acid. Washing was performed 3 times using washing buffer in all processes except for the process after TMB treatment, All processes except for the antigen coating process were carried out at room temperature.

[3] = biological target: T2, PD-L1 antigen (coated on 96-well immunoplate) (UniProt Q9NZQ7 19-238, limits assumed); test: single antigen ELISA, PD-L1 coated at 1 ug/mL, detection with anti-hFc-HRP
T2 construct: also called antigen PD-L1
Description: as §1

Chain of PD-L1 molecules (Sino, Cat #10084-H08H) (Q9NZQ7 19-238 limits assumed): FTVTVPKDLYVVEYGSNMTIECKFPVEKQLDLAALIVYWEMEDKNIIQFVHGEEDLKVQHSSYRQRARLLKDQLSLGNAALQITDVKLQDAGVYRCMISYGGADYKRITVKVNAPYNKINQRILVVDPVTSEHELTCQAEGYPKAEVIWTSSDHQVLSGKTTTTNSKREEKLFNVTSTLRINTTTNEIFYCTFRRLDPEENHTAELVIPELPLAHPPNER
T2 sequence (Q9NZQ7 19-238 limits assumed): as above

Row | Binder | Kd [1] [nM] | koff [1] [s⁻¹] | kon [1] [M⁻¹ s⁻¹] | binding result [2] | EC50 (read off the curve) [3] [µg/mL]
1 | B1 | 1.04 | 0.00182 | 1.76e+06 |  | 
2 | B2 | 1.1 | 0.00216 | 1.96e+06 |  | 
3 | B3 | 0.714 | 0.0013 | 1.82e+06 | no binding (tested: 100 ug/mL) | ~0.03
